According to patent US20220380455A1 (Alector, published 2022):

Columns and labels:
[1] = biological target: T1, cynomolgus (cyno) MS4A6A (cynomolgus, UniProt Q9H2W1 1-246 (human entry)); assay: flow cytometry, hybridoma supernatant, HEK293 transfected with cyno MS4A6A over parental HEK293; Screen 2
T1 construct: Full-length protein expressed in transfected HEK293, U937 or K562 cells (flow cytometry)
T1 chain: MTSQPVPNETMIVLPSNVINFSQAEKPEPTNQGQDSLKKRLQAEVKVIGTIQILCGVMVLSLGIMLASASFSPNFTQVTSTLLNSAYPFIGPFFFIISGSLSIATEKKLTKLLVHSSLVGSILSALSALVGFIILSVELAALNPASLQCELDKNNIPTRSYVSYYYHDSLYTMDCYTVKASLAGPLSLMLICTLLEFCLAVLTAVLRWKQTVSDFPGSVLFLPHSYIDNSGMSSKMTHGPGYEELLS
Procedure: (§1) Positive clones were expanded and then rescreened for specificity against HEK293 cells overexpressing cyno MS4A6A and parental HEK293 cells. Briefly, previously prepared, cryopreserved transiently-transfected cells were labeled with LIVE/DEAD Fixable Aqua Dead Cell Stain Kit (ThermoFisher Scientific L34957) on ice for 30 minutes. After a wash with PBS, 2×10⁵ cells were aliquoted per well in 96-well round bottom plates and incubated with 50 μl of culture supernatant on ice for 30 mins. […] Following this secondary incubation, the cells were again washed twice with ice-cold FACS buffer and resuspended in a final volume of 200 μl of FACS buffer. Analysis was performed on a FACS Canto system (BD Biosciences), with sort gates drawn to exclude dead (Aqua-positive) cells. […] The screen was repeated twice, and the numbers reported here represent the ratio of mean fluorescence level in transfected cells over parental cells.

[2] = biological target: T2, MS4A6A ECL2 peptide (human); assay: array SPR (Carterra MX-96), antibody captured, peptide injected; both duplicates N/A
T2 construct: also called MS4A6A ECL-2 peptides
T2 peptide: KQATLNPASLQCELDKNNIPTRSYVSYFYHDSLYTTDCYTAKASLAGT
Procedure: (§2) Binding kinetic characterization of the purified antibodies to MS4A6A ECL1 and ECL2 peptides was performed by Carterra (South San Francisco, Calif.) using a proprietary array Surface Plasmon Resonance (SPR) instrument (MX-96) as follows. Antibodies were printed onto a CMD5OOD chip (Xantec #SPMX CMD500D lot #SC CMD500D0117.a Exp. 31.12.18) using the Continuous Flow Microspotter (CFM). First, the chip was activated with 100 mM MES pH 5.5, 100 μL EDC (133 mM final), 100 μL of S-NHS (33.3 mM final), for 7 minutes. A lawn of anti-mouse IgG-Fc (Jackson ImmunoResearch CAT #115-005-071 lot#130410) was injected for 15 minutes to establish a surface density of 10000-12000 RU, after which the chip surface was deactivated with 1 M ethanolamine at pH 8.5 for 10 minutes. Anti-MS4A6A antibodies in question, in the form of hybridoma supernatants diluted 2:1 with HBS-EP+buffer (Teknova CAT #H8022), were then printed as duplicates with a 20 minute and a 5 minutes print from the same sample solution. Control antibodies were diluted to 20 μ/ml for printing.
(§3) To perform kinetic analysis, the peptides in question were prepared in HBS-EP+buffer with lmg/ml BSA at final assay concentrations of 2000 nM, 400 nM, 80 nM, 16 nmM, and 3.2 nM. These were then injected on the chip for five minutes, followed by a seven-minute dissociation period at 8 uL per second in a non-regenerative kinetic series. Duplicate measurements for each anti-MS4A6A antibody were taken to ensure reproducibility.
(§4) Kₐ (association rate constant; Kₒₙ), Kd (dissociation rate constant; Koff) and KD (equilibrium constant) to MS4A6A ECL-2 peptides were calculated for each of the 23 anti-MS4A6A antibodies tested, the results of which are shown below in Table 5 (clones that bound too weakly to determine these values are denoted as N/A in Table 5).

[3] = biological target: T1, cynomolgus (cyno) MS4A6A; assay: flow cytometry, hybridoma supernatant, HEK293 transfected with cyno MS4A6A over parental HEK293; Screen 1
Procedure: as §1

[4] = biological target: T3, MS4A6A ECL1 peptide (human); assay: array SPR (Carterra MX-96), antibody captured, peptide injected
T3 construct: the description elsewhere gives ECL1 as 68-84; Human and cyno ECL1 are said to be identical
T3 peptide: SASFSPNFTQVTSTLLNS
Procedure: as §2, §3, §4

[5] = biological target: T4, BSA-MS4A6A-ECL2 peptide (human, BSA-conjugated); assay: peptide ELISA, hybridoma supernatant
T4 construct: Synthetic peptide derived from ECL2, conjugated to BSA, coated on the ELISA plate; also called MS4A6A-ECL2 BSA conjugated peptide; BSA-MS4A6A-ELC2 peptide
T4 peptide: T2 peptide
Procedure: Anti-MS4A6A hybridoma supernatants were tested for binding to MS4A6A peptides derived from ECL1 (amino acid residues 68-85 of human MS4A6A of SEQ ID NO:1) and ECL2 (amino acid residues 138-185 of human MS4A6A of SEQ ID NO:1) sequences, using an enzyme-linked immunosorbent assay (ELISA). Briefly, 96-well polystyrene plates were coated with 1-10 μg/mL of synthetic free or BSA-conjugated peptides in coating buffer (0.05M carbonate buffer, pH9.6, Millipore Sigma C3041) overnight at 4° C. Coated plates were then blocked with ELISA diluent (PBS+0.5% BSA+0.05% Tween20) for 1-hour, washed 3×300 μL in PBST (PBS+0.05% Tween20, Thermo 28352), and then the antibodies were added at various dilutions (100-1000×) in ELISA diluent. After 30 mins incubation (room temperature, with shaking), the plates were washed 3×300 μl in PBST. A secondary anti-mouse HRP antibody (Jackson Immunoresearch CAT #115-035-003) was added at a 1:1000 dilution in ELISA diluent (50 μL/well) and incubated for 30 minutes at room temperature with shaking. After a final set of washes (3×300 μl in PBST), 50 μL of TMB substrate (BioFx TMBW-1000-01) was added and the reaction was then quenched after 5-10 mins with 50 μL of stop solution (BioFx BSTP-1000-01). The quenched reaction wells were detected for absorbance at […] with a BioTek Synergy Microplate Reader using GENS 2.04 software.

B1: 6A-1 (antibody, V domains shown)
VH: EVQLQQSGPELVKPGASVKISCKASGYSFTGYYMHWVKQSPEDSLEWIGAINPSTGGSTYSQKFKDKATLTVDKSSSTAYMQLKSLTSEESAVYYCTRFDGYGYWGQGTLVTVSA
VL: DIVMTQAAFSNPVTLGTSASISCRSSKSLLHSNGITYLYWYLQKPGQSLQLLIYQMSNLASGVPDRFSGSGSGTDFTLRISRVEAEDVGVYYCAQNLELPWTFGGGTKLEIK
notes: Mouse hybridoma antibody, tested as hybridoma supernatant (mouse IgG, detected or captured via anti-mouse IgG Fc); also called anti-MS4A6A antibody 6A-1
With B1 as the binder, how does the “ratio of APC MFI on MS4A6A+/HEK parental cells” value [1] read?
Its value is 7.6 ratio.

Does B1 bind [2]?
Result: no binding (tested: 2000 nM)

And the “ratio of APC MFI on MS4A6A+/HEK parental cells” value [3]?
The value was 7.5 ratio.

Does B1 bind [4]?
Result: no binding (tested: 2000 nM)

Does B1 bind [5]?
Result: no binding
